# Experimental data reported in paper PMC6834639, “Molecular basis for chirality-regulated Aβ self-assembly and receptor recognition revealed by ion mobility-mass spectrometry” (Nature Communications, 2019).
# Square brackets hold non-standard residues; d marks the D form. Ends that are not written are not given here.
# Columns and labels:
# [1] = target: tetrameric transthyretin (TTR) (UniProt P02766 21-147); assay: SPR; OpenSPR (Nicoya), TTR immobilised on a COOH chip by amine coupling; Aβ peptides injected (Aβ C-terminals 2.4-48 µM; Aβ (1–40/42) 0.2-20 µM); PBS pH 6.8 with 0.005% Tween 20; 150 s association, 400 s dissociation; 1:1 interaction model; conditions: both partners purified
# [2] = target: T1, human serum albumin (HSA) (human, UniProt P02768 25-609); assay: native MS; native IM-MS with CIU of HSA-Aβ (1–10) complexes, charge states 15+ to 18+; conditions: both partners purified
# T1 construct: serum albumin, human; source: bought: Sigma-Aldrich
# [3] = target: T1, human serum albumin (HSA); assay: native MS; native IM-MS with collision-induced unfolding (CIU); 100 mM NH4OAc; Aβ (1–16) 15 µM, Cu2+ 20 µM, BSA/HSA 7.5 µM; 37 °C incubation; conditions: both partners purified
# [4] = target: T2, bovine serum albumin (BSA) (bovine, UniProt P02769 25-607); assay: as above; conditions: both partners purified
# T2 construct: serum albumin, bovine; source: bought: Sigma-Aldrich
# T2 sequence (P02769 25-607): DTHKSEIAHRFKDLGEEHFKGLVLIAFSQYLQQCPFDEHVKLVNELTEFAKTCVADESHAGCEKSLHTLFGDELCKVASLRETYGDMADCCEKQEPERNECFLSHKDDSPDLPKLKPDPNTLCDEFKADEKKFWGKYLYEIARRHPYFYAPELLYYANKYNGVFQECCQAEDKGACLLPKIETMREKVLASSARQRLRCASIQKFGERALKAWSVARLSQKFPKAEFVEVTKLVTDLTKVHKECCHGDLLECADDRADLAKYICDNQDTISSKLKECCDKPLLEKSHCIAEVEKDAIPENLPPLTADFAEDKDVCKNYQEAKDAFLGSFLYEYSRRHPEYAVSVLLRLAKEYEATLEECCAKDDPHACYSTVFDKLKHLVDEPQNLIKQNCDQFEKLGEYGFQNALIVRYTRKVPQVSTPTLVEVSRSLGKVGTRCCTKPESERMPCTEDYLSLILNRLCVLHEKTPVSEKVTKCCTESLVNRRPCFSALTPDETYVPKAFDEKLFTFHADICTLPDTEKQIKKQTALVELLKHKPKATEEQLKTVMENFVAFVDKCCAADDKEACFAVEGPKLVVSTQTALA
# [5] = target: the molecule itself; assay: native MS; IM-MS of oligomers of one Aβ fragment alone; Aβ (1–10) and Aβ (1–16) 600 µM, 10 mM NH4OAc; oligomers of many sizes seen, a printed size is the largest one
# [6] = target: the molecule itself; assay: native MS; IM-MS of YGGFL aggregates; mass spectrum, concentration dependence and growth curve
Binder,Kd [1] [µM],koff [1] [s⁻¹],kon [1] [M⁻¹ s⁻¹],further results
"DAEFRHDSGY (amyloid beta residues 1-10, all L; also called Aβ N-terminal fragment; source: bought: Sangon Biotech Co., Ltd. (Shanghai, China)) [WT Aβ (1–10)]",–,–,–,binding result [2]: binds
"DAEFRHDSGYEVHHQK (amyloid beta residues 1-16, all L; also called wild type Aβ (1–16); source: bought: Sangon Biotech Co., Ltd. (Shanghai, China)) [WT Aβ (1–16)]",–,–,–,binding result [3]: binds; binding result [4]: binds; binding result [5]: binds
"YGGFL (YGGFL, used as a known model of isotropic growth)",–,–,–,binding result [6]: binds
"LVFFAEDVGSNKGAIIGLMV (amyloid beta residues 17-36, all L; also called Aβ C-terminal fragment; source: bought: Sangon Biotech Co., Ltd. (Shanghai, China)) [WT Aβ (17–36)]",11.5,0.008,690,–

# Further lines, with some results ahead:
Kd [1] [µM],koff [1] [s⁻¹],kon [1] [M⁻¹ s⁻¹],Binder,further results
83.1,0.102,1930,"LVFFAE[dD]VG[dS]NKGAIIGLMV (amyloid beta residues 17-36 with D-isomerized Asp and Ser; also called co-isomerized Aβ (17–36); source: bought: Sangon Biotech Co., Ltd. (Shanghai, China)) [dDdS Aβ (17–36)]",–
118,0.114,1160,"LVFFAEDVG[dS]NKGAIIGLMV (amyloid beta residues 17-36 with D-isomerized Ser; also called single D-isomerized Aβ (17–36); source: bought: Sangon Biotech Co., Ltd. (Shanghai, China)) [dS Aβ (17–36)]",–
149,0.132,990,"LVFFAE[dD]VGSNKGAIIGLMV (amyloid beta residues 17-36 with D-isomerized Asp; also called single D-isomerized Aβ (17–36); source: bought: Sangon Biotech Co., Ltd. (Shanghai, China)) [dD Aβ (17–36)]",–
